Biological target: His-MPK6 (Arabidopsis thaliana, UniProt Q39026 1-395)
Assay: pull-down

Chain of His-MPK6 (Q39026 whole entry): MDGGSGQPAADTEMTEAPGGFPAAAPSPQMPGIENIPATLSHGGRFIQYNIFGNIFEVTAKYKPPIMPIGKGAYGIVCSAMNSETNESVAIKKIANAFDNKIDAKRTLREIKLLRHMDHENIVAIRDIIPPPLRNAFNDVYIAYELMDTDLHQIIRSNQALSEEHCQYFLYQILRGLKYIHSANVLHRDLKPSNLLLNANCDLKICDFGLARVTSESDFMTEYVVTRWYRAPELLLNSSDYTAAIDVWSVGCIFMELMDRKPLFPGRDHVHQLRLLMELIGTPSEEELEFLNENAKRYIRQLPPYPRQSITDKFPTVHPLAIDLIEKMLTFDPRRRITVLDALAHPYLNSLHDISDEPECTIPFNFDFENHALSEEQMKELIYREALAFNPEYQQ

binding result: binds
B1: GST-MYB15 (natural protein, Arabidopsis thaliana, UniProt Q9LTC4 1-285, looked up)
chain: MGRAPCCEKMGLKRGPWTPEEDQILVSFILNHGHSNWRALPKQAGLLRCGKSCRLRWMNYLKPDIKRGNFTKEEEDAIISLHQILGNRWSAIAAKLPGRTDNEIKNVWHTHLKKRLEDYQPAKPKTSNKKKGTKPKSESVITSSNSTRSESELADSSNPSGESLFSTSPSTSEVSSMTLISHDGYSNEINMDNKPGDISTIDQECVSFETFGADIDESFWKETLYSQDEHNYVSNDLEVAGLVEIQQEFQNLGSANNEMIFDSEMDFWFDVLARTGGEQDLLAGL
